Residue numbers refer to the chain shown, from its start.
B1: BH2-B11 全抗体 (full antibody, human IgG1/kappa) (antibody, V domains shown)
VH: EVQLVESGGGLVQPGGSLRLSCAASGLTWSDSYKHWVRQAPGKGLEWVHWNSTYGGSTYYADSVKGRFTISADTSKNTAYLQMNSLRAEDTAVYYCARRHFASTWDYWGQGTLVTVSS
VL: DIQMTQSPSSLSASVGDRVTITCRASQNIHNSLAWYQQKPGKAPKLLIYGASSLESGVPSRFSGSGSGTDFTLTISSLQPEDFATYYCQQERRVPWTFGQGTKVEIKR
B2: AC9-E3 全抗体 (full antibody, human IgG1/kappa) (antibody, V domains shown)
VH: B1 VH with L27C, Y33W, K34D, H49D, W50Y, N51E, F101W, A102N, S103A, W105F
VL: B1 VL with N28S, S32Y, G50S, S53N, E55P, E91G, R92L, R93H, V94T, W96P
B3: AH10-E3 全抗体 (full antibody, human IgG1/kappa) (antibody, V domains shown)
VH: EVQLVESGGGLVQPGGSLRLSCAASGWTLSDSLQHWVRQAPGKGLEWVGFQSAYGGSTYYADSVKGRFTISADTSKNTAYLQMNSLRAEDTAVYYCARRHYYTAWDYWGQGTLVTVSS
VL: B1 VL with N28S, S32Y, G50S, S53N, E55P, E91G, R92L, R93H, V94T, W96P
B4: AC9-B11 全抗体 (full antibody, human IgG1/kappa) (antibody, V domains shown)
VH: B1 VH with L27C, Y33W, K34D, H49D, W50Y, N51E, F101W, A102N, S103A, W105F
VL: B1 VL
B5: BH2-E3 全抗体 (full antibody, human IgG1/kappa) (antibody, V domains shown)
VH: B1 VH
VL: B1 VL with N28S, S32Y, G50S, S53N, E55P, E91G, R92L, R93H, V94T, W96P
B6: AH10-B11 全抗体 (full antibody, human IgG1/kappa) (antibody, V domains shown)
VH: B3 VH
VL: B1 VL

These binders were tested against PD-L1 (UniProt Q9NZQ7 19-238, limits assumed) (assay: cell-based or functional assay).
Chain of PD-L1 (Q9NZQ7 19-238 limits assumed): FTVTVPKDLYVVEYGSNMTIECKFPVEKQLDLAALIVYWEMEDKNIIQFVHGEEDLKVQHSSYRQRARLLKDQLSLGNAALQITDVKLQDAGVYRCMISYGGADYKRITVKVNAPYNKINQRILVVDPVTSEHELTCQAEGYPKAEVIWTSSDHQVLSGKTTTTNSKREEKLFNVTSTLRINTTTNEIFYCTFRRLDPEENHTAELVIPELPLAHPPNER

EC50, CD4+ T细胞增殖 (混合淋巴细胞反应 MLR, cck8) [ng/mL] | Binder
6.73 | B1
11.9 | B2
11.4 | B3
7.58 | B4
7.71 | B5
9.88 | B6

Reference: patent CN110964111A (BEIJING DONGFANG BIOTECH CO LTD, dated 2020)
